Laboratory results: PMC6823450
Values joined by “and” are separate entries in the source; they are usually repeats but may differ in a detail not shown here. Identical values can stand only once.

How the values were obtained:
[1] = target: HIV-1 matrix protein p17 (wild type) (HIV-1) (UniProt P03347); assay: cross-linking; p17 (2 μg/ml in 20 μl) 2 h at 37 °C in PBS alone or with heparin, then 1 mM BS3 for 2 h at 37 °C; SDS-PAGE and Western blot with anti-p17; bands of 17, 34, 51 and 68 kDa quantified
[2] = target: HIV-1 matrix protein p17 (wild type) (HIV-1) (UniProt P03347); assay: SPR; p17 immobilised on a CM5 sensorchip by amine coupling (2,500 RU); free p17 (15.7-2000 nM) injected in HBS-EP (10 mM HEPES pH 7.4, 150 mM NaCl, 3 mM EDTA, 0.005% P20) for 2 min; BIAcore X 100; Kd from equilibrium RU (saturation curve, Scatchard) with two softwares; cannot tell dimer, trimer or higher oligomers apart

**Q.** What does the source list for “HIV-1 matrix protein p17 (wild type) (from UniProt P03347 1-132) (natural protein)”?
**A.** % of total protein as dimer [1]: 29%; % of total protein as tetramer [1]: 3%; % of total protein as trimer [1]: 12%; % of total protein remaining monomer [1]: 59%; fold increase of dimer with heparin against no heparin [1]: 2 fold; fold increase of tetramer with heparin against no heparin [1]: 3.4 fold; fold increase of trimer with heparin against no heparin [1]: 4.2 fold; stoichiometry N [1]: 2 and 3 and 4; Kd [2]: 529 nM and 665 nM
